According to patent publication US20200407457A1 (YANTAI OBIOADC BIOMEDICAL TECHNOLOGY, published 2020):
Where two headings read alike, the source gives them in different places.

What was measured:
[1] = molecular target: T1, TRAILR2 receptor on the surface of human tumor cells (human, UniProt O14763 56-440); test: cell-based or functional assay
[2] = molecular target: T1, TRAILR2 receptor on the surface of …; test: cell-based or functional assay; remark: listed apart in the source

Row | Binder | IC50, cytotoxic effect on Jurkat E6-1 cells (CellTiter-Glo, 72 h) [1] | IC50, cytotoxic effect on Mia PaCa-2 cells (CellTiter-Glo, 72 h) [1] | IC50, cytotoxic effect on NCI-H460 cells (CellTiter-Glo, 72 h) [1] | IC50, cytotoxic effect on NCI-H1975 cells (CellTiter-Glo, 72 h) [1] | IC50, cytotoxic effect on SMMC-7721 cells (CellTiter-Glo, 72 h) [1] | eff. (efficiency %), cytotoxic effect on Jurkat E6-1 cells [1] | eff. (efficiency %), cytotoxic effect on Mia PaCa-2 cells [1] | eff. (efficiency %), cytotoxic effect on NCI-H460 cells [1] | eff. (efficiency %), cytotoxic effect on NCI-H1975 cells [1] | eff. (efficiency %), cytotoxic effect on SMMC-7721 cells [1] | IC50, cytotoxic effect on A172 cells (CellTiter-Glo, 72 h) [2] | IC50, cytotoxic effect on Jurkat E6-1 cells (CellTiter-Glo, 72 h) [2] | IC50, cytotoxic effect on MSTO-211H cells (CellTiter-Glo, 72 h) [2] | IC50, cytotoxic effect on Mia PaCa-2 cells (CellTiter-Glo, 72 h) [2] | IC50, cytotoxic effect on Reh cells (CellTiter-Glo, 72 h) [2] | eff. (efficiency %), cytotoxic effect on A172 cells [2] | eff. (efficiency %), cytotoxic effect on Jurkat E6-1 cells [2] | eff. (efficiency %), cytotoxic effect on MSTO-211H cells [2] | eff. (efficiency %), cytotoxic effect on Mia PaCa-2 cells [2] | eff. (efficiency %), cytotoxic effect on Reh cells [2] | further results
1 | Zapadcine-1a (antibody, V domains shown, MMAD coupled through linker Py-Vc-PAB by thiol (disulfide) bridge coupling, cleavable; positions not given) VH: QVQLVQSGSELKKPGASVKVSCKASGYTFTDFSMNWVRQAPGQGLEWMGWINTETGEPTYADDFKGRFVFSLDTSVSTAYLQISSLKAEDTAVYYCARIDYWGQGTTVTVSS VL: DIVMTQSPLSLPVTPGEPASISCRSSQSLVHSNGNTYLHWYLQKPGQSPQLLIYKVSNRFSGVPDRFSGSGSGTDFTLKISRVEAEDVGVYYCFQSTHVPHTFGQGTKLEIKR | 0.0134 µg/mL | 0.135 µg/mL | 0.0865 µg/mL | 0.109 µg/mL | 0.012 µg/mL | 97.3% | 88.4% | 96.2% | 84.6% | 99.4% |  |  |  |  |  |  |  |  |  |  | IC50, cytotoxic effect on A2780 cells (CellTiter-Glo, 72 h) [1]: 0.151 µg/mL
2 | Zapadcine-1b (antibody, V domains shown, MMAD coupled through linker Mc-Vc-PAB by thiol conventional coupling, cleavable; positions not given) VH: QVQLVQSGSELKKPGASVKVSCKASGYTFTDFSMNWVRQAPGQGLEWMGWINTETGEPTYADDFKGRFVFSLDTSVSTAYLQISSLKAEDTAVYYCARIDYWGQGTTVTVSS VL: DIVMTQSPLSLPVTPGEPASISCRSSQSLVHSNGNTYLHWYLQKPGQSPQLLIYKVSNRFSGVPDRFSGSGSGTDFTLKISRVEAEDVGVYYCFQSTHVPHTFGQGTKLEIKR | 0.00871 µg/mL | 0.604 µg/mL | 0.178 µg/mL | 0.411 µg/mL | 0.178 µg/mL | 98.6% | 86.8% | 93.3% | 83.4% | 95.7% |  |  |  |  |  |  |  |  |  |  | IC50, cytotoxic effect on A2780 cells (CellTiter-Glo, 72 h) [1]: 1.1 µg/mL
3 | Zapadcine-1d (antibody, V domains shown, MMAF coupled through linker Mc-Vc-PAB by thiol conventional coupling, cleavable; positions not given) VH: QVQLVQSGSELKKPGASVKVSCKASGYTFTDFSMNWVRQAPGQGLEWMGWINTETGEPTYADDFKGRFVFSLDTSVSTAYLQISSLKAEDTAVYYCARIDYWGQGTTVTVSS VL: DIVMTQSPLSLPVTPGEPASISCRSSQSLVHSNGNTYLHWYLQKPGQSPQLLIYKVSNRFSGVPDRFSGSGSGTDFTLKISRVEAEDVGVYYCFQSTHVPHTFGQGTKLEIKR | 0.108 µg/mL | 1.02 µg/mL | 1.03 µg/mL | 1.67 µg/mL | 0.583 µg/mL | 84.9% | 80% | 80.6% | 68.8% | 93.7% |  |  |  |  |  |  |  |  |  |  | 
4 | Zapadcine-3d (antibody, V domains shown, MMAE coupled through linker MC by thiol conventional coupling, non-cleavable; positions not given) VH: QVQLVQSGSELKKPGASVKVSCKASGYTFTDFSMNWVRQAPGQGLEWMGWINTETGEPTYADDFKGRFVFSLDTSVSTAYLQISSLKAEDTAVYYCARIDYWGQGTTVTVSS VL: DIVMTQSPLSLPVTPGEPASISCRSSQSLVHSNGNTYLHWYLQKPGQSPQLLIYKVSNRFSGVPDRFSGSGSGTDFTLKISRVEAEDVGVYYCFQSTHVPHTFGQGTKLEIKR |  |  |  |  |  |  |  |  |  |  | 0.307 µg/mL | 0.00571 µg/mL | 0.123 µg/mL | 0.139 µg/mL | 0.0242 µg/mL | 92.5% | 98.9% | 98.5% | 81.7% | 98.8% | 
5 | Zapadcine-3a (antibody, V domains shown, MMAE coupled through linker PY-VC-PAB by thiol bridge coupling, cleavable; positions not given) VH: QVQLVQSGSELKKPGASVKVSCKASGYTFTDFSMNWVRQAPGQGLEWMGWINTETGEPTYADDFKGRFVFSLDTSVSTAYLQISSLKAEDTAVYYCARIDYWGQGTTVTVSS VL: DIVMTQSPLSLPVTPGEPASISCRSSQSLVHSNGNTYLHWYLQKPGQSPQLLIYKVSNRFSGVPDRFSGSGSGTDFTLKISRVEAEDVGVYYCFQSTHVPHTFGQGTKLEIKR |  |  |  |  |  |  |  |  |  |  | 0.225 µg/mL | 0.0372 µg/mL | 0.127 µg/mL | 0.097 µg/mL | 0.0159 µg/mL | 98.2% | 80.2% | 97.5% | 88.8% | 89.8% | 
6 | Zapadcine-3c (antibody, V domains shown, MMAE coupled through linker MC-VC-PAB by thiol conventional coupling, cleavable; positions not given) VH: QVQLVQSGSELKKPGASVKVSCKASGYTFTDFSMNWVRQAPGQGLEWMGWINTETGEPTYADDFKGRFVFSLDTSVSTAYLQISSLKAEDTAVYYCARIDYWGQGTTVTVSS VL: DIVMTQSPLSLPVTPGEPASISCRSSQSLVHSNGNTYLHWYLQKPGQSPQLLIYKVSNRFSGVPDRFSGSGSGTDFTLKISRVEAEDVGVYYCFQSTHVPHTFGQGTKLEIKR |  |  |  |  |  |  |  |  |  |  | 0.703 µg/mL | 0.0896 µg/mL | 0.22 µg/mL | 0.508 µg/mL | 0.889 µg/mL | 93.2% | 82% | 98.2% | 86.3% | 98.6% | 
7 | Zapadcine-3e (antibody, V domains shown, MMAF coupled through linker MC by thiol conventional coupling, non-cleavable; positions not given) VH: QVQLVQSGSELKKPGASVKVSCKASGYTFTDFSMNWVRQAPGQGLEWMGWINTETGEPTYADDFKGRFVFSLDTSVSTAYLQISSLKAEDTAVYYCARIDYWGQGTTVTVSS VL: DIVMTQSPLSLPVTPGEPASISCRSSQSLVHSNGNTYLHWYLQKPGQSPQLLIYKVSNRFSGVPDRFSGSGSGTDFTLKISRVEAEDVGVYYCFQSTHVPHTFGQGTKLEIKR |  |  |  |  |  |  |  |  |  |  |  | 0.0981 µg/mL | 0.177 µg/mL | 0.951 µg/mL | 0.163 µg/mL |  | 90.7% | 99.1% | 53% | 77.4% | 
8 | Zapadcine-1c (antibody, V domains shown, MMAD coupled through linker Py-MAA by thiol bridge coupling, non-cleavable; positions not given) VH: QVQLVQSGSELKKPGASVKVSCKASGYTFTDFSMNWVRQAPGQGLEWMGWINTETGEPTYADDFKGRFVFSLDTSVSTAYLQISSLKAEDTAVYYCARIDYWGQGTTVTVSS VL: DIVMTQSPLSLPVTPGEPASISCRSSQSLVHSNGNTYLHWYLQKPGQSPQLLIYKVSNRFSGVPDRFSGSGSGTDFTLKISRVEAEDVGVYYCFQSTHVPHTFGQGTKLEIKR | 0.0165 µg/mL | 0.173 µg/mL | 0.0651 µg/mL | 0.312 µg/mL | 0.0197 µg/mL | 98.1% | 74% | 46.4% | 83% | 96.5% |  |  |  |  |  |  |  |  |  |  | 
9 | Zapadcine-3b (antibody, V domains shown, MMAE coupled through linker PY-MAA by thiol bridge coupling, non-cleavable; positions not given) VH: QVQLVQSGSELKKPGASVKVSCKASGYTFTDFSMNWVRQAPGQGLEWMGWINTETGEPTYADDFKGRFVFSLDTSVSTAYLQISSLKAEDTAVYYCARIDYWGQGTTVTVSS VL: DIVMTQSPLSLPVTPGEPASISCRSSQSLVHSNGNTYLHWYLQKPGQSPQLLIYKVSNRFSGVPDRFSGSGSGTDFTLKISRVEAEDVGVYYCFQSTHVPHTFGQGTKLEIKR |  |  |  |  |  |  |  |  |  |  | 0.389 µg/mL | 0.0717 µg/mL | 0.255 µg/mL | 0.415 µg/mL | 0.196 µg/mL | 90.8% | 87.1% | 91% | 52.9% | 75.3% | 
10 | Zaptuzumab (antibody, V domains shown) VH: QVQLVQSGSELKKPGASVKVSCKASGYTFTDFSMNWVRQAPGQGLEWMGWINTETGEPTYADDFKGRFVFSLDTSVSTAYLQISSLKAEDTAVYYCARIDYWGQGTTVTVSS VL: DIVMTQSPLSLPVTPGEPASISCRSSQSLVHSNGNTYLHWYLQKPGQSPQLLIYKVSNRFSGVPDRFSGSGSGTDFTLKISRVEAEDVGVYYCFQSTHVPHTFGQGTKLEIKR | 0.201 µg/mL | 3.01 µg/mL |  | 0.542 µg/mL | 6.12 µg/mL | 90.7% | 27.5% |  | 62.4% | 48% |  | 0.201 µg/mL | 0.514 µg/mL | 2.9 µg/mL | 1.59 µg/mL |  | 90.7% | 47.8% | 33.2% | 45% | 
